According to patent US20230030529A1:

Target: C4-aa^1355 monoclonal antibody
Experiment: competitive C4-aa^1355 ECLIA, peptide in solution against the biotinylated coating peptide

Sequence of C4-aa^1355 monoclonal antibody (VH, as listed by the source, chain 1 of 2): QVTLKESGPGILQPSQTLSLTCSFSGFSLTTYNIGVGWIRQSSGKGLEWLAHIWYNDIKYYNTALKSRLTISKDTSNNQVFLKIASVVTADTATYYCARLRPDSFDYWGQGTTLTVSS
Sequence of C4-aa^1355 monoclonal antibody (VL, as listed by the source, chain 2 of 2): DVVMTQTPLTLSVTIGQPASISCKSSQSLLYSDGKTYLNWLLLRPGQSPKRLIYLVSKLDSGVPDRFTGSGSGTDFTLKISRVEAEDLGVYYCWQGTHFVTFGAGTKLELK

- signal left at the highest peptide concentration (% B/B0): 65%
Binder: MGNSGPTGAV [Deselection peptide 2 …]
